# Test results from IntAct's records for PubMed 17003044.
# B1: BAR/IMD domain-containing adapter protein 2 (Homo sapiens), Q9UQB8 (parent)
# chain: MSLSRSEEMHRLTENVYKTIMEQFNPSLRNFIAMGKNYEKALAGVTYAAKGYFDALVKMGELASESQGSKELGDVLFQMAEVHRQIQNQLEEMLKSFHNELLTQLEQKVELDSRYLSAALKKYQTEQRSKGDALDKCQAELKKLRKKSQGSKNPQKYSDKELQYIDAISNKQGELENYVSDGYKTALTEERRRFCFLVEKQCAVAKNSAAYHSKGKELLAQKLPLWQQACADPSKIPERAVQLMQQVASNGATLPSALSASKSNLVISDPIPGAKPLPVPPELAPFVGRMSAQESTPIMNGVTGPDGEDYSPWADRKAAQPKSLSPPQSQSKLSDSYSNTLPVRKSVTPKNSYATTENKTLPRSSSMAAGLERNGRMRVKAIFSHAAGDNSTLLSFKEGDLITLLVPEARDGWHYGESEKTKMRGWFPFSYTRVLDSDGSDRLHMSLQQGKSSSTGNLLDKDDLAIPPPDYGAASRAFPAQTASGFKQRPYSVAVPAFSQGLDDYGARSMSRNPFAHVQLKPTVTNDRCDLSAQGPEGREHGDGSARTLAGR
# Variants of: B1
# Conditions: with rac1_human RAC1, P63000
row,Variant,effect of a mutation on the interaction
1,MSLSRSEEMHRLTENVYKTIMEEFNPSLRNFIAMGKNYEKALAGVTYAAKGYFDALVKMGELASESQGSKELGDVLFQMAEVHRQIQNQLEEMLKSFHNELLTQLEQKVELDSRYLSAALKKYQTEQRSKGDALDKCQAELKKLRKKSQGSKNPQKYSDKELQYIDAISNKQGELENYVSDGYKTALTEERRRFCFLVEKQCAVAKNSAAYHSKGKELLAQKLPLWQQACADPSKIPERAVQLMQQVASNGATLPSALSASKSNLVISDPIPGAKPLPVPPELAPFVGRMSAQESTPIMNGVTGPDGEDYSPWADRKAAQPKSLSPPQSQSKLSDSYSNTLPVRKSVTPKNSYATTENKTLPRSSSMAAGLERNGRMRVKAIFSHAAGDNSTLLSFKEGDLITLLVPEARDGWHYGESEKTKMRGWFPFSYTRVLDSDGSDRLHMSLQQGKSSSTGNLLDKDDLAIPPPDYGAASRAFPAQTASGFKQRPYSVAVPAFSQGLDDYGARSMSRNPFAHVQLKPTVTNDRCDLSAQGPEGREHGDGSARTLAGR [Q23E],decreasing interaction strength
2,MSLSRSEEMHRLTENVYKTIMEQFNPSLRNFIAMGKNYEKALAGVTYAAKGYFDALVKMGELASESQGSKELGDVLFQMAEVHRQIQNQLEEMLKSFHNELLTQLEQKVELDSRYLSAALKKYQTEQRSKGDALDKCQAELAALAAASQGSKNPQKYSDKELQYIDAISNKQGELENYVSDGYKTALTEERRRFCFLVEKQCAVAKNSAAYHSKGKELLAQKLPLWQQACADPSKIPERAVQLMQQVASNGATLPSALSASKSNLVISDPIPGAKPLPVPPELAPFVGRMSAQESTPIMNGVTGPDGEDYSPWADRKAAQPKSLSPPQSQSKLSDSYSNTLPVRKSVTPKNSYATTENKTLPRSSSMAAGLERNGRMRVKAIFSHAAGDNSTLLSFKEGDLITLLVPEARDGWHYGESEKTKMRGWFPFSYTRVLDSDGSDRLHMSLQQGKSSSTGNLLDKDDLAIPPPDYGAASRAFPAQTASGFKQRPYSVAVPAFSQGLDDYGARSMSRNPFAHVQLKPTVTNDRCDLSAQGPEGREHGDGSARTLAGR [K142A;K143A;R145A;K146A;K147A],decreasing interaction strength
3,MSLSRSEEMHRLTENVYKTIMEQFNPSLRNFIAMGKNYEKALAGVTYAAKGYFDALVKMGELASESQGSKELGDVLFQMAEVHRQIQNQLEEMLKSFHNELLTQLEQKVELDSRYLSAALKKYQTEQRSKGDALDKCQAELKELRKKSQGSKNPQKYSDKELQYIDAISNKQGELENYVSDGYKTALTEERRRFCFLVEKQCAVAKNSAAYHSKGKELLAQKLPLWQQACADPSKIPERAVQLMQQVASNGATLPSALSASKSNLVISDPIPGAKPLPVPPELAPFVGRMSAQESTPIMNGVTGPDGEDYSPWADRKAAQPKSLSPPQSQSKLSDSYSNTLPVRKSVTPKNSYATTENKTLPRSSSMAAGLERNGRMRVKAIFSHAAGDNSTLLSFKEGDLITLLVPEARDGWHYGESEKTKMRGWFPFSYTRVLDSDGSDRLHMSLQQGKSSSTGNLLDKDDLAIPPPDYGAASRAFPAQTASGFKQRPYSVAVPAFSQGLDDYGARSMSRNPFAHVQLKPTVTNDRCDLSAQGPEGREHGDGSARTLAGR [K143E],decreasing interaction strength
4,MSLSRSEEMHELTENVYKTIMEEFNPSLRNFIAMGKNYEKALAGVTYAAKGYFDALVKMGELASESQGSKELGDVLFQMAEVHRQIQNQLEEMLKSFHNELLTQLEQKVELDSRYLSAALKKYQTEQRSKGDALDKCQAELKKLRKKSQGSKNPQKYSDKELQYIDAISNKQGELENYVSDGYKTALTEERRRFCFLVEKQCAVAKNSAAYHSKGKELLAQKLPLWQQACADPSKIPERAVQLMQQVASNGATLPSALSASKSNLVISDPIPGAKPLPVPPELAPFVGRMSAQESTPIMNGVTGPDGEDYSPWADRKAAQPKSLSPPQSQSKLSDSYSNTLPVRKSVTPKNSYATTENKTLPRSSSMAAGLERNGRMRVKAIFSHAAGDNSTLLSFKEGDLITLLVPEARDGWHYGESEKTKMRGWFPFSYTRVLDSDGSDRLHMSLQQGKSSSTGNLLDKDDLAIPPPDYGAASRAFPAQTASGFKQRPYSVAVPAFSQGLDDYGARSMSRNPFAHVQLKPTVTNDRCDLSAQGPEGREHGDGSARTLAGR [R11E;Q23E],decreasing interaction strength
5,MSLSRSEEMHRLTENVYKTIMEQFNPSLRNFIAMGKNYEKALAGVTYAAKGYFDALVKMGELASESQGSKELGDVLFQMAEVHRQIQNQLEEMLKSFHNELLTQLEQKVELDSRYLSAALKKYQTEQRSKGDALDKCQAELKELRKESQGSKNPQKYSDKELQYIDAISNKQGELENYVSDGYKTALTEERRRFCFLVEKQCAVAKNSAAYHSKGKELLAQKLPLWQQACADPSKIPERAVQLMQQVASNGATLPSALSASKSNLVISDPIPGAKPLPVPPELAPFVGRMSAQESTPIMNGVTGPDGEDYSPWADRKAAQPKSLSPPQSQSKLSDSYSNTLPVRKSVTPKNSYATTENKTLPRSSSMAAGLERNGRMRVKAIFSHAAGDNSTLLSFKEGDLITLLVPEARDGWHYGESEKTKMRGWFPFSYTRVLDSDGSDRLHMSLQQGKSSSTGNLLDKDDLAIPPPDYGAASRAFPAQTASGFKQRPYSVAVPAFSQGLDDYGARSMSRNPFAHVQLKPTVTNDRCDLSAQGPEGREHGDGSARTLAGR [K143E;K147E],decreasing interaction strength
